Source: patent US20090215991A1

How the values were obtained:
[1] = target: extracellular region of human V158 FcγRIIIa with C-terminal 6xHis-tag and GST-tag (human) (UniProt P08637); experiment: SPR
[2] = target: FcγRIIIa on human PBMCs expressing heterozygous V158/F158 FcγRIIIa (human) (UniProt P08637); experiment: cell-based or functional assay
FcγRIIIa on human PBMCs expressing heterozygous V158/F158 FcγRIIIa (human), sequence (P08637 17-254): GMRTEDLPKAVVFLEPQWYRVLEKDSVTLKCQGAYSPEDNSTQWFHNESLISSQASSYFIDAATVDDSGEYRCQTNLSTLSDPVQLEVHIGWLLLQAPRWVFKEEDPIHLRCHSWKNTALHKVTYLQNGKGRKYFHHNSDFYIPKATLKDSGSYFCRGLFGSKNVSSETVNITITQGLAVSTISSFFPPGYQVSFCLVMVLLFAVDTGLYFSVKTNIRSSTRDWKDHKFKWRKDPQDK

extracellular region of human V158 FcγRIIIa with C-terminal 6xHis-tag and GST-tag (human), sequence (P08637 17-208 F176V): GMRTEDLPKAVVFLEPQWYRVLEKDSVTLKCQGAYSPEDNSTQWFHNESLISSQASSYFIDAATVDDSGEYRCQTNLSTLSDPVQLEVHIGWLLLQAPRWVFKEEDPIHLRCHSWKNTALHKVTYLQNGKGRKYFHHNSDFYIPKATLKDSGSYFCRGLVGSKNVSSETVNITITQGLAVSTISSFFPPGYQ

| Fold WT [1] [fold] | ADCC log(EC50), DoHH-2 target cells [2] | Substance |
| --- | --- | --- |
| 1.38 |  | E272R alemtuzumab (antibody) |
| 2.31 |  | E283H alemtuzumab (antibody) |
|  | 0.49 log(ng/ml) | S239D/I332E alemtuzumab (antibody) |
| 12.8 |  | S304T alemtuzumab (antibody) |
|  | 0.6 log(ng/ml) | V264I/I332E alemtuzumab (antibody) |
| 1.51 |  | V284E alemtuzumab (antibody) |
